Results reported in US20050048527.

Legend:
[1] = biological target: MAM FEN1 (arch swap chimera) (Methanococcus jannaschii / Archaeoglobus fulgidus?) (UniProt Q58839); assay: cleavage_in_vitro; settings: rate vs Pfu FEN1
[2] = biological target: PMP FEN1 (arch swap chimera) (UniProt O93634); assay: cleavage_in_vitro; settings: rate vs Pfu FEN1
[3] = biological target: Pfu + M4 FEN1 (loop swap chimera) (UniProt O93634); assay: cleavage_in_vitro; settings: rate vs Pfu FEN1
[4] = biological target: MPM FEN1 (arch swap chimera) (Methanococcus jannaschii / Pyrococcus furiosus?) (UniProt Q58839); assay: cleavage_in_vitro; settings: rate vs Pfu FEN1
[5] = biological target: Mja + P16 FEN1 (loop swap chimera) (Methanococcus jannaschii / Pyrococcus furiosus?) (UniProt Q58839); assay: cleavage_in_vitro; settings: rate vs Pfu FEN1
[6] = biological target: PAP FEN1 (arch swap chimera) (Pyrococcus furiosus / Archaeoglobus fulgidus?) (UniProt O93634); assay: cleavage_in_vitro; settings: rate vs Pfu FEN1
[7] = system: Thermus aquaticus DNA polymerase
Thermus aquaticus DNA polymerase, sequence (chain, as listed by the source): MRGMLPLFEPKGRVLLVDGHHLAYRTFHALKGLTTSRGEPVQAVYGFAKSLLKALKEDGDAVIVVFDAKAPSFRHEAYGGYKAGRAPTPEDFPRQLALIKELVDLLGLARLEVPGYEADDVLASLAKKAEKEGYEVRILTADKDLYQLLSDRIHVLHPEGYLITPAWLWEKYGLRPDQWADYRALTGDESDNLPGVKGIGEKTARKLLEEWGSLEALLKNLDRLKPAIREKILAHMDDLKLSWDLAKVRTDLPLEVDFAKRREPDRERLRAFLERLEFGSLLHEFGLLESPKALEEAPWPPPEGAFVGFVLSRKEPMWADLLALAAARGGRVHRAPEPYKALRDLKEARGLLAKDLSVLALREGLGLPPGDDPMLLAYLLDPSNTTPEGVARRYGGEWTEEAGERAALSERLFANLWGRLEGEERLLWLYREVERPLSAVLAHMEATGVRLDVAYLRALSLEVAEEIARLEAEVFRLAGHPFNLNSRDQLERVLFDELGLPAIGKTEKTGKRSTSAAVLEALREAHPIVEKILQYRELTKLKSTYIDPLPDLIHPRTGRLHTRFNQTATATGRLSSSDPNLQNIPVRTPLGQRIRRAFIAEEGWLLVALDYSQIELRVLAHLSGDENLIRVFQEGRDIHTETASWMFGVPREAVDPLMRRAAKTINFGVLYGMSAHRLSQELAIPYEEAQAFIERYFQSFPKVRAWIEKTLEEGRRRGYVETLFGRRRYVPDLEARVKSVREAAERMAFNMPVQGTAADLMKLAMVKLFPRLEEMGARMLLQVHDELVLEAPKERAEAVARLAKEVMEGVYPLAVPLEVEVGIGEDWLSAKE

[8] = system: CLEAVASE BN/thrombin nuclease
CLEAVASE BN/thrombin nuclease, sequence (chain, as listed by the source): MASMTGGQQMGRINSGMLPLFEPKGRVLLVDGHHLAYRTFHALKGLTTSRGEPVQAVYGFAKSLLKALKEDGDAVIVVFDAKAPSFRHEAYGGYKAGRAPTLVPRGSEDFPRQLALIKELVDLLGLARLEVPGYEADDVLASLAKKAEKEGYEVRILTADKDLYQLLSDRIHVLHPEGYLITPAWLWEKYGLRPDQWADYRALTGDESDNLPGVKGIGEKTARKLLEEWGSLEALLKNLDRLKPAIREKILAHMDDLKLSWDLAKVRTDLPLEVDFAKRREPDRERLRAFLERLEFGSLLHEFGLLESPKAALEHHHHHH

[9] = biological target: DNAPTth (Thermus thermophilus) (UniProt P52028); assay: cleavage_in_vitro; settings: probe cleaved in 30 min
DNAPTth (Thermus thermophilus), sequence (P52028 whole entry): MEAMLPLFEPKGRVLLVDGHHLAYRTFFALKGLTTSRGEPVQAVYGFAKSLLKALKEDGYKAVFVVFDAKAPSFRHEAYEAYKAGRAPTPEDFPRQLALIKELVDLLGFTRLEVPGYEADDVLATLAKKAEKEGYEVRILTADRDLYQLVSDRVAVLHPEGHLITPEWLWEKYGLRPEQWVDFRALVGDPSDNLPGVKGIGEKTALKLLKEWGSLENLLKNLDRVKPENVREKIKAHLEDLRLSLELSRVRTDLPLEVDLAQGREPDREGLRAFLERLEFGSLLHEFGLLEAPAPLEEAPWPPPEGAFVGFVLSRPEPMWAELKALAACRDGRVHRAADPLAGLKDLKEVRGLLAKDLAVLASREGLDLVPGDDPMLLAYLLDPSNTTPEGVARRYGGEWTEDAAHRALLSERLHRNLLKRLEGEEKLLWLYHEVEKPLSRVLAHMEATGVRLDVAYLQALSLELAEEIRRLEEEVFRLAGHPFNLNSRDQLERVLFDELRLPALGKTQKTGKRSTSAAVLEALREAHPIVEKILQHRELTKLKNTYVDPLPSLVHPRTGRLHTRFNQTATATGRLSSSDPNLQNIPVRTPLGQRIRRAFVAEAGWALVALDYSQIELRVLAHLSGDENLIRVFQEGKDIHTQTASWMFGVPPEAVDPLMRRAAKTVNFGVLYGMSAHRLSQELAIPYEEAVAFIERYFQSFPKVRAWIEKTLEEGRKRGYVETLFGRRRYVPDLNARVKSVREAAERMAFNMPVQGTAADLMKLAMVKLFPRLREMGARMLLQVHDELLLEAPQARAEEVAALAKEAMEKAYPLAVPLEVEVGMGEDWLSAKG

[10] = biological target: CLEAVASE A/G nuclease (Thermus aquaticus) (UniProt P19821); assay: cleavage_in_vitro; settings: probe cleaved in 30 min
[11] = biological target: T1, Mja FEN1 (Methanococcus jannaschii) (UniProt Q58839); assay: cleavage_in_vitro; settings: turnover
T1 sequence: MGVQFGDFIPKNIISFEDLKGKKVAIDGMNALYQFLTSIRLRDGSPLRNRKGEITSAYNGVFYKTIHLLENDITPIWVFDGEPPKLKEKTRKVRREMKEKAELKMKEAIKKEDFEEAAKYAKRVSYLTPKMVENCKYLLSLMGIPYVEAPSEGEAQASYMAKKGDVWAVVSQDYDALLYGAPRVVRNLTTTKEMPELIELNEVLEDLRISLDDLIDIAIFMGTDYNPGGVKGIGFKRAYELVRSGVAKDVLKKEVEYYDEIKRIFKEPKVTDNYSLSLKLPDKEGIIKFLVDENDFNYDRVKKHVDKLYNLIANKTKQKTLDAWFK

[12] = biological target: T2, Pfu FEN1 (Pyrococcus furiosus) (UniProt O93634); assay: cleavage_in_vitro; settings: turnover
T2 sequence: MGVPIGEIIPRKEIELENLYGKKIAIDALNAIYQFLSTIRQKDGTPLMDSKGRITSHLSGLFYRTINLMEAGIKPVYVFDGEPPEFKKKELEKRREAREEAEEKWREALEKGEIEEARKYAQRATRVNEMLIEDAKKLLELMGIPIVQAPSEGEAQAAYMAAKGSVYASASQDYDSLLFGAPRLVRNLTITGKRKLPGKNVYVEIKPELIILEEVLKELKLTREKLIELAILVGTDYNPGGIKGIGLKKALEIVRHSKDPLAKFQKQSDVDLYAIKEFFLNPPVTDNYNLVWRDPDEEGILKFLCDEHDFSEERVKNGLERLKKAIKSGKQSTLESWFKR

## TTTTCAACTGCTTAGAGAATCTAAGCAGTTGGTGCGCCTCGTTAA / AACGAGGCGCACATT [X-structure 203-81-2/203-91-2]
[1]; 3'-NH2 on first strand
  cleavage rate: 0.07
[2]; 3'-NH2 on first strand
  cleavage rate: 1.37
[3]; 3'-NH2 on first strand
  cleavage rate: 0.28
[4]; 3'-NH2 on first strand
  cleavage rate: 0.1
[5]; 3'-NH2 on first strand
  cleavage rate: 59
[6]; 3'-NH2 on first strand
  cleavage rate: 0.52

## factor Xa
[7]
  protease digestion of the unmodified nuclease: Both nuclease proteins were cut with factor Xa within the 5′ nuclease domain
CLEAVASE BN nuclease
CLEAVASE BN nuclease, sequence (chain, as listed by the source): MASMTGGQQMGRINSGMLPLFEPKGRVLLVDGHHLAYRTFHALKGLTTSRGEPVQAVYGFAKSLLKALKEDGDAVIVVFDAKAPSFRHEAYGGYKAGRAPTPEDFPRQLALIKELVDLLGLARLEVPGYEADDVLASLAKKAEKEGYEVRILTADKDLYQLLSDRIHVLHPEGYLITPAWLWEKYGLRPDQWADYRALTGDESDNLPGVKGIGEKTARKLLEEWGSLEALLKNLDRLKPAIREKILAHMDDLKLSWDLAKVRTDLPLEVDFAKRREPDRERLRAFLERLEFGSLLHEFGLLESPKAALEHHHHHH
  protease digestion of the unmodified nuclease: Both nuclease proteins were cut with factor Xa within the 5′ nuclease domain

## thrombin
[7]
  protease digestion of the unmodified nuclease: neither nuclease was digested with large amounts of thrombin
CLEAVASE BN nuclease
  protease digestion of the unmodified nuclease: neither nuclease was digested with large amounts of thrombin
[8]
  thrombin digestion, SDS-PAGE with Coomassie stain: CLEAVASE BN/thrombin nuclease is efficiently cleaved by thrombin

## CCGGTCGTCCTGGCAATXCC / GTTTATCCAAGAAAGGACCCGGTC [HCV RNA target/probe/INVADER (DNA oligos listed)]
[9]
  activity: 70%
[10]
  activity: 32%

## duplex length 6 substrate
[11]
  activity: 51 per min
[12]
  activity: 44 per min

## duplex length 0 substrate
[11]
  activity: 0 per min
[12]
  activity: 0 per min

## duplex length 3 substrate
[11]
  activity: 29 per min
[12]
  activity: 1 per min

## duplex length 4 substrate
[11]
  activity: 57 per min
[12]
  activity: 10 per min

## TTTTTCACGGCAGTTGGTGCGCCTCGGAACGAGGCGCACA / TTTTCAACTGCCGTGA [INVADER substrate 594-12-1/203-91-1]
[1]
  cleavage rate: 0.03
[2]
  cleavage rate: 2.4
[3]
  cleavage rate: 0.05
[4]
  cleavage rate: 0.14
[5]
  cleavage rate: 1.2
[6]
  cleavage rate: 0.56

## duplex length 8 substrate
[11]
  activity: 46 per min
[12]
  activity: 45 per min
